# T1: IL-11 (UniProt P20809 22-199, limits assumed)
# T1 construct: also called IL-11 protein; IL-11 antigen
# T1 sequence (looked up): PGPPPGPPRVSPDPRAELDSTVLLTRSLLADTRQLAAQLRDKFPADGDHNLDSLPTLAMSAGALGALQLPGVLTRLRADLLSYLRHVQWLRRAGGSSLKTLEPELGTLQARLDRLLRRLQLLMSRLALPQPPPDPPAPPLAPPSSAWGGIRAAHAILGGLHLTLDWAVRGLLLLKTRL
# Target: T1, IL-11
# Experiment: SPR Biacore, scFv captured, IL-11 400 nM
# Experimental: The measure method included the steps of capturing the humanized single-chain antibody at a flow rate of 10 uL/min. […] Finally, the chip was regenerated with 10 mM glycine buffer.
Binder,Kd [nM],koff [s⁻¹],kon [M⁻¹ s⁻¹]
“VH1+VL3”-scFv (scFv) scFv: QVQLVQSGAEVKKPGASVKVSCKASDYTFTNYWLGWVRQAPGQGLEWMGHIYPGGGYTNYNEKFKGRVTMTRDTSTSTVYMELSSLRSEDTAVYYCARVRSGNDALDFWGQGTLVTVSSGGGGSGGGGSGGGGSEIVLTQSPATLSLSPGERATLSCRASESVDEYGISFMNWFQQKPGQAPRLLIYSASNQGSGIPARFSGSGSGTDFTLTISSLEPEDFAVYFCQQSKEVPWTFGGGTKLEIK,12.3,0.000436,35500
"“VH1+VL1”-scFv (scFv, CHO expression supernatant) scFv: QVQLVQSGAEVKKPGASVKVSCKASDYTFTNYWLGWVRQAPGQGLEWMGHIYPGGGYTNYNEKFKGRVTMTRDTSTSTVYMELSSLRSEDTAVYYCARVRSGNDALDFWGQGTLVTVSSGGGGSGGGGSGGGGSEIVLTQSPATLSLSPGERATLSCRASESVDEYGISFMNWYQQKPGQAPRLLIYSASNQGSGIPARFSGSGSGTDFTLTISSLEPEDFAVYYCQQSKEVPWTFGGGTKLEIK",21.6,0.000758,35100
“VH1+VL2”-scFv (scFv) scFv: QVQLVQSGAEVKKPGASVKVSCKASDYTFTNYWLGWVRQAPGQGLEWMGHIYPGGGYTNYNEKFKGRVTMTRDTSTSTVYMELSSLRSEDTAVYYCARVRSGNDALDFWGQGTLVTVSSGGGGSGGGGSGGGGSEIVLTQSPATLSLSPGERATLSCRASESVDEYGISFMNWYQQKPGQAPRLLIYSASNQGSGIPARFSGSGSGTDFTLTISSLEPEDFAVYFCQQSKEVPWTFGGGTKLEIK,11.2,0.000461,41300
“VH1+VL4”-scFv (scFv) scFv: QVQLVQSGAEVKKPGASVKVSCKASDYTFTNYWLGWVRQAPGQGLEWMGHIYPGGGYTNYNEKFKGRVTMTRDTSTSTVYMELSSLRSEDTAVYYCARVRSGNDALDFWGQGTLVTVSSGGGGSGGGGSGGGGSEIVLTQSPATLSLSPGERATLSCRASESVDEYGISFMNWFQQKPGQAPRLLIYSASNQGSGIPARFSGSGSGTDFTLTISSLEPEDFAMYFCQQSKEVPWTFGGGTKLEIK,11.7,0.000387,33100
“VH2+VL1”-scFv (scFv) scFv: QVQLVQSGAEVKKPGASVKVSCKASDYTFTNYWLGWVRQAPGQGLEWIGHIYPGGGYTNYNEKFKGRVTMTADTSTSTVYMELSSLRSEDTAVYFCARVRSGNDALDFWGQGTLVTVSSGGGGSGGGGSGGGGSEIVLTQSPATLSLSPGERATLSCRASESVDEYGISFMNWYQQKPGQAPRLLIYSASNQGSGIPARFSGSGSGTDFTLTISSLEPEDFAVYYCQQSKEVPWTFGGGTKLEIK,16.7,0.00089,53400
“VH2+VL2”-scFv (scFv) scFv: QVQLVQSGAEVKKPGASVKVSCKASDYTFTNYWLGWVRQAPGQGLEWIGHIYPGGGYTNYNEKFKGRVTMTADTSTSTVYMELSSLRSEDTAVYFCARVRSGNDALDFWGQGTLVTVSSGGGGSGGGGSGGGGSEIVLTQSPATLSLSPGERATLSCRASESVDEYGISFMNWYQQKPGQAPRLLIYSASNQGSGIPARFSGSGSGTDFTLTISSLEPEDFAVYFCQQSKEVPWTFGGGTKLEIK,17.8,0.000812,45700
“VH2+VL3”-scFv (scFv) scFv: QVQLVQSGAEVKKPGASVKVSCKASDYTFTNYWLGWVRQAPGQGLEWIGHIYPGGGYTNYNEKFKGRVTMTADTSTSTVYMELSSLRSEDTAVYFCARVRSGNDALDFWGQGTLVTVSSGGGGSGGGGSGGGGSEIVLTQSPATLSLSPGERATLSCRASESVDEYGISFMNWFQQKPGQAPRLLIYSASNQGSGIPARFSGSGSGTDFTLTISSLEPEDFAVYFCQQSKEVPWTFGGGTKLEIK,11.9,0.000541,45600
“VH2+VL4”-scFv (scFv) scFv: QVQLVQSGAEVKKPGASVKVSCKASDYTFTNYWLGWVRQAPGQGLEWIGHIYPGGGYTNYNEKFKGRVTMTADTSTSTVYMELSSLRSEDTAVYFCARVRSGNDALDFWGQGTLVTVSSGGGGSGGGGSGGGGSEIVLTQSPATLSLSPGERATLSCRASESVDEYGISFMNWFQQKPGQAPRLLIYSASNQGSGIPARFSGSGSGTDFTLTISSLEPEDFAMYFCQQSKEVPWTFGGGTKLEIK,10.8,0.000528,48800
“VH3+VL1”-scFv (scFv) scFv: QVQLVQSGAEVKKPGASVKVSCKASDYTFTNYWLGWVRQAPGQGLEWIGHIYPGGGYTNYNEKFKGRATLTADTSTSTVYMELSSLRSEDTAVYFCARVRSGNDALDFWGQGTLVTVSSGGGGSGGGGSGGGGSEIVLTQSPATLSLSPGERATLSCRASESVDEYGISFMNWYQQKPGQAPRLLIYSASNQGSGIPARFSGSGSGTDFTLTISSLEPEDFAVYYCQQSKEVPWTFGGGTKLEIK,22.5,0.001,44500
“VH3+VL2”-scFv (scFv) scFv: QVQLVQSGAEVKKPGASVKVSCKASDYTFTNYWLGWVRQAPGQGLEWIGHIYPGGGYTNYNEKFKGRATLTADTSTSTVYMELSSLRSEDTAVYFCARVRSGNDALDFWGQGTLVTVSSGGGGSGGGGSGGGGSEIVLTQSPATLSLSPGERATLSCRASESVDEYGISFMNWYQQKPGQAPRLLIYSASNQGSGIPARFSGSGSGTDFTLTISSLEPEDFAVYFCQQSKEVPWTFGGGTKLEIK,14.6,0.00068,46500
“VH3+VL3”-scFv (scFv) scFv: QVQLVQSGAEVKKPGASVKVSCKASDYTFTNYWLGWVRQAPGQGLEWIGHIYPGGGYTNYNEKFKGRATLTADTSTSTVYMELSSLRSEDTAVYFCARVRSGNDALDFWGQGTLVTVSSGGGGSGGGGSGGGGSEIVLTQSPATLSLSPGERATLSCRASESVDEYGISFMNWFQQKPGQAPRLLIYSASNQGSGIPARFSGSGSGTDFTLTISSLEPEDFAVYFCQQSKEVPWTFGGGTKLEIK,9.76,0.000464,47600
“VH3+VL4”-scFv (scFv) scFv: QVQLVQSGAEVKKPGASVKVSCKASDYTFTNYWLGWVRQAPGQGLEWIGHIYPGGGYTNYNEKFKGRATLTADTSTSTVYMELSSLRSEDTAVYFCARVRSGNDALDFWGQGTLVTVSSGGGGSGGGGSGGGGSEIVLTQSPATLSLSPGERATLSCRASESVDEYGISFMNWFQQKPGQAPRLLIYSASNQGSGIPARFSGSGSGTDFTLTISSLEPEDFAMYFCQQSKEVPWTFGGGTKLEIK,13.3,0.000556,41800
“VH4+VL1”-scFv (scFv) scFv: QVQLVQSGAEVKKPGASVKVSCKASDYTFTNYWLGWVRQAPGHGLEWIGHIYPGGGYTNYNEKFKGRATLTADTSTSTVYMELSSLRSEDTAVYFCARVRSGNDALDFWGQGTLVTVSSGGGGSGGGGSGGGGSEIVLTQSPATLSLSPGERATLSCRASESVDEYGISFMNWYQQKPGQAPRLLIYSASNQGSGIPARFSGSGSGTDFTLTISSLEPEDFAVYYCQQSKEVPWTFGGGTKLEIK,17.2,0.00084,48900
“VH4+VL2”-scFv (scFv) scFv: QVQLVQSGAEVKKPGASVKVSCKASDYTFTNYWLGWVRQAPGHGLEWIGHIYPGGGYTNYNEKFKGRATLTADTSTSTVYMELSSLRSEDTAVYFCARVRSGNDALDFWGQGTLVTVSSGGGGSGGGGSGGGGSEIVLTQSPATLSLSPGERATLSCRASESVDEYGISFMNWYQQKPGQAPRLLIYSASNQGSGIPARFSGSGSGTDFTLTISSLEPEDFAVYFCQQSKEVPWTFGGGTKLEIK,11.1,0.000614,55200
“VH4+VL3”-scFv (scFv) scFv: QVQLVQSGAEVKKPGASVKVSCKASDYTFTNYWLGWVRQAPGHGLEWIGHIYPGGGYTNYNEKFKGRATLTADTSTSTVYMELSSLRSEDTAVYFCARVRSGNDALDFWGQGTLVTVSSGGGGSGGGGSGGGGSEIVLTQSPATLSLSPGERATLSCRASESVDEYGISFMNWFQQKPGQAPRLLIYSASNQGSGIPARFSGSGSGTDFTLTISSLEPEDFAVYFCQQSKEVPWTFGGGTKLEIK,11.2,0.000516,46100
“VH4+VL4”-scFv (scFv) scFv: QVQLVQSGAEVKKPGASVKVSCKASDYTFTNYWLGWVRQAPGHGLEWIGHIYPGGGYTNYNEKFKGRATLTADTSTSTVYMELSSLRSEDTAVYFCARVRSGNDALDFWGQGTLVTVSSGGGGSGGGGSGGGGSEIVLTQSPATLSLSPGERATLSCRASESVDEYGISFMNWFQQKPGQAPRLLIYSASNQGSGIPARFSGSGSGTDFTLTISSLEPEDFAMYFCQQSKEVPWTFGGGTKLEIK,10,0.000481,47900

# Target: T1, IL-11
# Experiment: flow cytometry of phage clone; cells not given
row,Binder,Flow (Mean) [mean fluorescence]
1,1A10 (scFv) scFv: QVQLVQSGAEVKKPGASVKVSCKASDYTFTNYWLGWVRQAPGQGLEWMGHIYPGGGYTNYNEKFKGRVTMTRDTSTSTVYMELSSLRSEDTAVYYCARVSSGNDALDFWGQGTLVTVSSGGGGSGGGGSGGGGSEIVLTQSPATLSLSPGERATLSCRASESVDEYGISFMNWFQQKPGQAPRLLIYSASNQGSGIPARFSGSGSGTDFTLTISSLEPEDFAVYFCQQSKEQPWTFGGGTKLEIK,2200
2,"1B1 (scFv, As m119: scFv on phage) scFv: QVQLVQSGAVVKKPGASVKVSCKASDYTFTNYWLGWVRQAPGQGLEWMGHIYPGGGYTNYNEKFKGRVTMTSDTSTSTVYMELSSLSSEDTAVYYCARVRSGNDALDFWGQGTLVTVSSGGGGSGGGGSGGGGSEIVLTQSPATLSLSPGERATLSCHASESVDEYGISFMNWFQQKPGQAPRLLIYSASNQGSGIPARFSGSGSGTDFTLTISSLEPEDFAVYFCQQSKEVPWTFGGGTKLEIK",3500

# Target: T1, IL-11
# Experiment: phage ELISA on IL-11
row,Binder,ELISA
1,1A10 (scFv) scFv: QVQLVQSGAEVKKPGASVKVSCKASDYTFTNYWLGWVRQAPGQGLEWMGHIYPGGGYTNYNEKFKGRVTMTRDTSTSTVYMELSSLRSEDTAVYYCARVSSGNDALDFWGQGTLVTVSSGGGGSGGGGSGGGGSEIVLTQSPATLSLSPGERATLSCRASESVDEYGISFMNWFQQKPGQAPRLLIYSASNQGSGIPARFSGSGSGTDFTLTISSLEPEDFAVYFCQQSKEQPWTFGGGTKLEIK,2.06
2,"1B1 (scFv, As m119: scFv on phage) scFv: QVQLVQSGAVVKKPGASVKVSCKASDYTFTNYWLGWVRQAPGQGLEWMGHIYPGGGYTNYNEKFKGRVTMTSDTSTSTVYMELSSLSSEDTAVYYCARVRSGNDALDFWGQGTLVTVSSGGGGSGGGGSGGGGSEIVLTQSPATLSLSPGERATLSCHASESVDEYGISFMNWFQQKPGQAPRLLIYSASNQGSGIPARFSGSGSGTDFTLTISSLEPEDFAVYFCQQSKEVPWTFGGGTKLEIK",1.46
